Measured values taken from patent US20240400705A1 (SYNERGY IMT, published 2024).

Tests used:
[1] = target: CD137 on cells (CD137 reporter cell line, Promega; expanded T cells) (UniProt Q07011 24-255, limits assumed); experiment: cell-based or functional assay
CD3 on T cells = target: T1, CD3 on T cells (UniProt P07766 23-207); experiment: flow cytofluorimetry on expanded T cells, 250 nM; bar = MFI, marker = percent positive
T1 construct: whole, on cells; CD3 is a complex; also called T cell CD3
T1 sequence (P07766 23-207): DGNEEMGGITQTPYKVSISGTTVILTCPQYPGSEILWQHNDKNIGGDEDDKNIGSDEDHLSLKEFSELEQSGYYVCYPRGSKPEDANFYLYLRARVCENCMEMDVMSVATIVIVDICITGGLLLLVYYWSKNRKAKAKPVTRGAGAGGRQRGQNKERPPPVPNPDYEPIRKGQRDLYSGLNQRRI
Description: (§1) The binding of the multispecific recombinant antigen binding molecules to expanded T cells (FIG. 6D) and to the colon tumor cell line DLD1 (FIG. 6A) was determined by flow cytofluorimetry. Binding was conducted with a saturating concentration (250 nM). The T cells were expanded in culture from immunocult ([…] Technologies) stimulated peripheral blood mononuclear cells that were maintained in culture for at least 30 days. Multispecific recombinant antigen binding molecules were produced in HEK293 cells and one-step purified by FPLC using a HiTrap Protein A column. The expression of various T cell markers or tumor antigens was determined using commercial antibodies specific for Trop2, CD137, MICA/MICB, Tim4, Tim1 (all purchased from Biolegend). […] Greater levels of binding to DLD1 are associated with binding to PS and in particular bivalent binding to PS (e.g., 17v7-18v9).

[2] = target: T2, TROP2 on DLD1 colon cancer cells (UniProt P09758 27-323, limits assumed); experiment: flow cytofluorimetry on DLD1 colon tumor cells, 250 nM; bar = MFI, marker = percent positive
T2 construct: whole, on cells
T2 sequence (looked up): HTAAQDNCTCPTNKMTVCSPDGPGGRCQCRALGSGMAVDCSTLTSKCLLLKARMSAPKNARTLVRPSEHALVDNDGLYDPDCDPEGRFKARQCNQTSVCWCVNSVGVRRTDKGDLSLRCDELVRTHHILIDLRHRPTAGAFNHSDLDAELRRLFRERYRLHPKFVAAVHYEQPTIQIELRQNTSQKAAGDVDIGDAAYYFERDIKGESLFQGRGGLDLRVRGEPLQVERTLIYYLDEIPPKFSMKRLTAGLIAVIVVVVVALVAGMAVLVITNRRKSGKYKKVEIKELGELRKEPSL
Description: as §1

[3] = target: T2, TROP2 on DLD1 colon cancer cells; experiment: cell-based or functional assay
[4] = target: T2, TROP2 on DLD1 colon cancer cells; experiment: flow cytofluorimetry on DLD1 colon tumor cells, 250 nM; bar = MFI, marker = percent positive; the molecule also carries a b2GP1 D5 domain for phosphatidylserine
Description: as §1

Sequence of CD137 on cells (CD137 reporter cell line, Promega; expanded T cells) (Q07011 24-255 limits assumed): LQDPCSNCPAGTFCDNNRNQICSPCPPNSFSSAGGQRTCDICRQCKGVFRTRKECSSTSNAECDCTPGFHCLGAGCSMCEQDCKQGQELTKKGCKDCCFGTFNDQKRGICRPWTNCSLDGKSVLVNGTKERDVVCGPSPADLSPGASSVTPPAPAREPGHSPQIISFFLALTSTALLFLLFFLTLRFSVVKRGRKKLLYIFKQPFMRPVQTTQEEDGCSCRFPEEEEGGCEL

B1: TetrAx 20v8-18v26 (Trop2 x CD137, two CD137L domains) (bispecific antibody)
light: DIQLTQSPSSLSASVGDRVSITCKASQDVSIAVAWYQQKPGKAPKLLIYSASYRTTGVPDRFSGSGSGTDFTLTISSLQPEDFAVYYCQQHYITPLTFGAGTKVEIKRTVAAPSVFIFPPSDEQLKSGTASVVCLLNNFYPREAKVQWKVDNALQSGNSQESVTEQDSKDSTYSLSSTLTLSKADYEKQKVYACEVTHQGLSSPVTKSFLRGECGGPAGGGGGTHTCPPCPAPEAAGGPSVFLFPPKPKDTLMISRTPEVTCVVVDVSHEDPEVKFNWYVDGVEVHNAKTKPREEQYNSTYRVVSVLTVLHQDWLNGKEYKCKVSNKALPAPIEKTISKAKGQPREPQVCTLPPSRDELTKNQVSLSCAVKGFYPSDIAVEWESNGQPENNYKTTPPVLDSDGSFFLVSKLTVDKSRWQQGNVFSCSVMHEALHNHYTQKSLSLSPGKGGGGGGMFAQLVAQNVLLIDGPLSWYSDPGLAGVSLTGGLSYKEDTKELVVAKAGVYYVFFQLELRRVVAGEGSGSVSLALHLQPLRSAAGAAALALTVDLPPASSEARNSAFGFQGRLLHLSAGQRLGVHLHTEARARHAWQLTQGATVLGLFRVTP
heavy: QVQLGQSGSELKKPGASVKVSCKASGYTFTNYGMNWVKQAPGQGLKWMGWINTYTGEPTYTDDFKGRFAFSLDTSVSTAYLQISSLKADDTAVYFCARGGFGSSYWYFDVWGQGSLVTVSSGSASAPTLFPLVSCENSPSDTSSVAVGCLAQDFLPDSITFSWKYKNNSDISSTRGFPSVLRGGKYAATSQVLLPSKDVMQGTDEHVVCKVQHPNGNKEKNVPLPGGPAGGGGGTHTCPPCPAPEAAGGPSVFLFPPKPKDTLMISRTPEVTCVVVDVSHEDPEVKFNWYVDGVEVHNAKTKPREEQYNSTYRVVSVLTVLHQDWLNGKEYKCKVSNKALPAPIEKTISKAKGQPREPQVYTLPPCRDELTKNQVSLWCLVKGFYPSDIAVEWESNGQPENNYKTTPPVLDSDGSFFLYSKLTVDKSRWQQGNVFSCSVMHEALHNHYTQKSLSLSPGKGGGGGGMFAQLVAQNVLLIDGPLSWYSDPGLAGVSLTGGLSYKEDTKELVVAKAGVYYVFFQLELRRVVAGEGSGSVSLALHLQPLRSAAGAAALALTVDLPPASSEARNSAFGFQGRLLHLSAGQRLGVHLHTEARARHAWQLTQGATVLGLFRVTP
notes: also called dual CD137L TetrAx
[1]
  CD137 signaling relative to the TetrAx with a single CD137L domain: 3 fold
  T cell DLD1 cytotoxicity EC50: 300 pM
CD3 on T cells
  binding result: no binding (tested: 250 nM)

B2: TetrAx 20v8-18v22 (Trop2 x CD137, one CD137L domain) (bispecific antibody)
light: DIQLTQSPSSLSASVGDRVSITCKASQDVSIAVAWYQQKPGKAPKLLIYSASYRTTGVPDRFSGSGSGTDFTLTISSLQPEDFAVYYCQQHYITPLTFGAGTKVEIKRTVAAPSVFIFPPSDEQLKSGTASVVCLLNNFYPREAKVQWKVDNALQSGNSQESVTEQDSKDSTYSLSSTLTLSKADYEKQKVYACEVTHQGLSSPVTKSFLRGECGGPAGGGGGTHTCPPCPAPEAAGGPSVFLFPPKPKDTLMISRTPEVTCVVVDVSHEDPEVKFNWYVDGVEVHNAKTKPREEQYNSTYRVVSVLTVLHQDWLNGKEYKCKVSNKALPAPIEKTISKAKGQPREPQVCTLPPSRDELTKNQVSLSCAVKGFYPSDIAVEWESNGQPENNYKTTPPVLDSDGSFFLVSKLTVDKSRWQQGNVFSCSVMHEALHNHYTQKSLSLSPGKGGGGGGMFAQLVAQNVLLIDGPLSWYSDPGLAGVSLTGGLSYKEDTKELVVAKAGVYYVFFQLELRRVVAGEGSGSVSLALHLQPLRSAAGAAALALTVDLPPASSEARNSAFGFQGRLLHLSAGQRLGVHLHTEARARHAWQLTQGATVLGLFRVTP
heavy: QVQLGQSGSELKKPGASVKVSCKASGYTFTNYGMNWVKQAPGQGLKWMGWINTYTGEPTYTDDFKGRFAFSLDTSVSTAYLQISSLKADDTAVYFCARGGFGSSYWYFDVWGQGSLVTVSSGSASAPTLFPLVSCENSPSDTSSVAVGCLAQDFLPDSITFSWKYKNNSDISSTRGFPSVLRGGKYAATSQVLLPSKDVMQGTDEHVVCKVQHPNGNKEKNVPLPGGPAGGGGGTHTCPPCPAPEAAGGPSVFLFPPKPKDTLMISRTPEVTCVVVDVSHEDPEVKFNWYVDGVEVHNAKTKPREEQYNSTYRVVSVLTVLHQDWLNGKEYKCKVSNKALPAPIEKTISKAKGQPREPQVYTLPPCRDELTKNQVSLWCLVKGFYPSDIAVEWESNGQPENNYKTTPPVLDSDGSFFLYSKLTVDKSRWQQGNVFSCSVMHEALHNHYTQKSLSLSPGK
notes: CD137L domain is residues 90 to 242 (THD)
[1]
  T cell DLD1 cytotoxicity: 40 fold
CD3 on T cells
  binding result: no binding (tested: 250 nM)
[2]
  binding result: binds

B3: TetrAx 17v17-18v23 (PS x Trop2 x CD3) (bispecific antibody)
light: DIQLTQSPSSLSASVGDRVSITCKASQDVSIAVAWYQQKPGKAPKLLIYSASYRTTGVPDRFSGSGSGTDFTLTISSLQPEDFAVYYCQQHYITPLTFGAGTKVEIKRTVAAPSVFIFPPSDEQLKSGTASVVCLLNNFYPREAKVQWKVDNALQSGNSQESVTEQDSKDSTYSLSSTLTLSKADYEKQKVYACEVTHQGLSSPVTKSFLRGECGGPAGGGGGTHTCPPCPAPEAAGGPSVFLFPPKPKDTLMISRTPEVTCVVVDVSHEDPEVKFNWYVDGVEVHNAKTKPREEQYNSTYRVVSVLTVLHQDWLNGKEYKCKVSNKALPAPIEKTISKAKGQPREPQVCTLPPSRDELTKNQVSLSCAVKGFYPSDIAVEWESNGQPENNYKTTPPVLDSDGSFFLVSKLTVDKSRWQQGNVFSCSVMHEALHNHYTQKSLSLSPGKGGGGGGASCKVPVKKATVVYQGERVKIQEKFKNGMLHGDKVSFFCKNKEKKCSYTEDAQCIDGTIEVPKCFKEHSSLAFWKTDASDVKPC
heavy: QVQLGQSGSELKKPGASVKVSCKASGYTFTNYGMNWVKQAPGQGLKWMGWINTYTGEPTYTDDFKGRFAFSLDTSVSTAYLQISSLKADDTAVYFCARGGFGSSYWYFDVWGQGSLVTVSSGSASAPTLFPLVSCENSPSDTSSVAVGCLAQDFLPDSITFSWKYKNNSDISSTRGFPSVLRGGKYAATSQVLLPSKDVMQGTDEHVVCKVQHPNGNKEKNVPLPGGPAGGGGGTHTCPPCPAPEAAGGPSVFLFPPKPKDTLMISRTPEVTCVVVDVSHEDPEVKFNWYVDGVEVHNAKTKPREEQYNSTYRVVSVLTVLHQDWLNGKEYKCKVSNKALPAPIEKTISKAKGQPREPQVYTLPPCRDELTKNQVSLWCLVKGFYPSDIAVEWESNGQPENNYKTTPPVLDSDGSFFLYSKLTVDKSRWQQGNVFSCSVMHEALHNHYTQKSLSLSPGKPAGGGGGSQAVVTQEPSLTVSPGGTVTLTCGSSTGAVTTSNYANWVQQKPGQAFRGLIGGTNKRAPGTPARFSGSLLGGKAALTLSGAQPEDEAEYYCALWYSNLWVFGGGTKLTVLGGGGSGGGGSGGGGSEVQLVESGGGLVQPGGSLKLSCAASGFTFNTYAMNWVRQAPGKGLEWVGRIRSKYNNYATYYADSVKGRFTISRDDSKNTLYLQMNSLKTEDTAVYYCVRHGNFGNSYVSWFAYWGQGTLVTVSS
[3]
  DLD1 cytotoxicity EC50 (18 h, T cells): 0.5 pM
  DLD1 cytotoxicity EC50 in a 3D tumor model (spheroids, T cells 2:1): 21 pM

B4: TetrAx 17v9-18 (Trop2 x CD3) (bispecific antibody)
light: QAVVTQEPSLTVSPGGTVTLTCGSSTGAVTTSNYANWVQEKPGQAFRGLIGGTNKRAPGTPARFSGSLLGGKAALTLSGAQPEDEAEYYCALWYSNLWVFGCGTKLTVLRTVAAPSVFIFPPSDEQLKSGTASVVCLLNNFYPREAKVQWKVDNALQSGNSQESVTEQDSKDSTYSLSSTLTLSKADYEKHKVYACEVTHQGLSSPVTKSFNRGECGGPAGGGGGTHTCPPCPAPEAAGGPSVFLFPPKPKDTLMISRTPEVTCVVVDVSHEDPEVKFNWYVDGVEVHNAKTKPREEQYNSTYRVVSVLTVLHQDWLNGKEYKCKVSNKALPAPIEKTISKAKGQPREPQVCTLPPSRDELTKNQVSLSCAVKGFYPSDIAVEWESNGQPENNYKTTPPVLDSDGSFFLVSKLTVDKSRWQQGNVFSCSVMHEALHNHYTQKSLSLSPGKGGGGGGQVQLGQSGSELKKPGASVKVSCKASGYTFTSYAMNWVRQAPGQGLKWMGWINTYTGETPYTDDFKGRFAFSLDTSVSTAYLQISSLKADDTAVYFCARGGFGSSYWYFDVWGQGTLVTVSSGGGGSGGGGSGGGGSDIQLTQSPSSLSASVGDRVSITCKASQDVSIAVAWYQQKPGKAPKLLIYSASYRYTGVPDRFSGSGSGTDFTLTISSLQPEDFAVYYCQQHYITPLTFGAGTKVEIK
heavy: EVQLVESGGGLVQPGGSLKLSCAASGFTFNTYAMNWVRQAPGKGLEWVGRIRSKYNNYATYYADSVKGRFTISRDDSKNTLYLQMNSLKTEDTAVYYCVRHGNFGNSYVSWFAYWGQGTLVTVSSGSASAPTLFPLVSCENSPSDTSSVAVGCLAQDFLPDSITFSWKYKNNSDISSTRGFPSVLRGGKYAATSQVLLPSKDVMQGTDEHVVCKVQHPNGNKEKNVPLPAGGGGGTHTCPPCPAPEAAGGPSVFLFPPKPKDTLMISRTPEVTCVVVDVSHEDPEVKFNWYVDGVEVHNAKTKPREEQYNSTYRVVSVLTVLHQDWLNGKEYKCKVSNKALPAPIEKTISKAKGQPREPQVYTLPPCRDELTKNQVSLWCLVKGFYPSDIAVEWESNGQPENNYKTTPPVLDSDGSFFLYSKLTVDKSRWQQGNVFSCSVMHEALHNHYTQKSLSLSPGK
[3]
  DLD1 cytotoxicity EC50 (18 h, T cells): ~3 pM

B5: TetrAx 17v16-18v23 (Trop2 x CD3) (bispecific antibody)
light: DIQLTQSPSSLSASVGDRVSITCKASQDVSIAVAWYQQKPGKAPKLLIYSASYRTTGVPDRFSGSGSGTDFTLTISSLQPEDFAVYYCQQHYITPLTFGAGTKVEIKRTVAAPSVFIFPPSDEQLKSGTASVVCLLNNFYPREAKVQWKVDNALQSGNSQESVTEQDSKDSTYSLSSTLTLSKADYEKQKVYACEVTHQGLSSPVTKSFLRGECGGPAGGGGGTHTCPPCPAPEAAGGPSVFLFPPKPKDTLMISRTPEVTCVVVDVSHEDPEVKFNWYVDGVEVHNAKTKPREEQYNSTYRVVSVLTVLHQDWLNGKEYKCKVSNKALPAPIEKTISKAKGQPREPQVCTLPPSRDELTKNQVSLSCAVKGFYPSDIAVEWESNGQPENNYKTTPPVLDSDGSFFLVSKLTVDKSRWQQGNVFSCSVMHEALHNHYTQKSLSLSPGK
heavy: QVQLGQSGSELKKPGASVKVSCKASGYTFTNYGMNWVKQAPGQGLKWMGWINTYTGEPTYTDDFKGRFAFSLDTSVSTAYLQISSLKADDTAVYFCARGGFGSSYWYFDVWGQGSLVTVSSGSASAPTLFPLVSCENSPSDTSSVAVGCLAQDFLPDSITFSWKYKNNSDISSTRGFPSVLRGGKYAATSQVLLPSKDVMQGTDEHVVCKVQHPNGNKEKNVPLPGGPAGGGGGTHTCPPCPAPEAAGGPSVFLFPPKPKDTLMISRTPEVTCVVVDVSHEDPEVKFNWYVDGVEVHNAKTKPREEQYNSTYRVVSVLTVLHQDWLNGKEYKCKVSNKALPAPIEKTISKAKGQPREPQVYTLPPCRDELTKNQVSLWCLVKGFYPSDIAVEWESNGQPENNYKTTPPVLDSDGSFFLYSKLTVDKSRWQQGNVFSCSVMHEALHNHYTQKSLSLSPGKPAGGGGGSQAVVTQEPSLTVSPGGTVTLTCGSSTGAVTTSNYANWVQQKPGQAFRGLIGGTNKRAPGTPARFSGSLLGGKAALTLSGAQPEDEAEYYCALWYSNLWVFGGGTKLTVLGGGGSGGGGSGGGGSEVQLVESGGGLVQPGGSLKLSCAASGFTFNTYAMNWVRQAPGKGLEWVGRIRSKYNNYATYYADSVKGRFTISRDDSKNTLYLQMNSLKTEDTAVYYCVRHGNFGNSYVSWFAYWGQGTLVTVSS
[3]
  DLD1 cytotoxicity EC50 (18 h, T cells): 8 pM

B6: 17v17-18v22 (bispecific antibody)
light chain 17v17: DIQLTQSPSSLSASVGDRVSITCKASQDVSIAVAWYQQKPGKAPKLLIYSASYRTTGVPDRFSGSGSGTDFTLTISSLQPEDFAVYYCQQHYITPLTFGAGTKVEIKRTVAAPSVFIFPPSDEQLKSGTASVVCLLNNFYPREAKVQWKVDNALQSGNSQESVTEQDSKDSTYSLSSTLTLSKADYEKQKVYACEVTHQGLSSPVTKSFLRGECGGPAGGGGGTHTCPPCPAPEAAGGPSVFLFPPKPKDTLMISRTPEVTCVVVDVSHEDPEVKFNWYVDGVEVHNAKTKPREEQYNSTYRVVSVLTVLHQDWLNGKEYKCKVSNKALPAPIEKTISKAKGQPREPQVCTLPPSRDELTKNQVSLSCAVKGFYPSDIAVEWESNGQPENNYKTTPPVLDSDGSFFLVSKLTVDKSRWQQGNVFSCSVMHEALHNHYTQKSLSLSPGKGGGGGGASCKVPVKKATVVYQGERVKIQEKFKNGMLHGDKVSFFCKNKEKKCSYTEDAQCIDGTIEVPKCFKEHSSLAFWKTDASDVKPC
heavy chain 18v22: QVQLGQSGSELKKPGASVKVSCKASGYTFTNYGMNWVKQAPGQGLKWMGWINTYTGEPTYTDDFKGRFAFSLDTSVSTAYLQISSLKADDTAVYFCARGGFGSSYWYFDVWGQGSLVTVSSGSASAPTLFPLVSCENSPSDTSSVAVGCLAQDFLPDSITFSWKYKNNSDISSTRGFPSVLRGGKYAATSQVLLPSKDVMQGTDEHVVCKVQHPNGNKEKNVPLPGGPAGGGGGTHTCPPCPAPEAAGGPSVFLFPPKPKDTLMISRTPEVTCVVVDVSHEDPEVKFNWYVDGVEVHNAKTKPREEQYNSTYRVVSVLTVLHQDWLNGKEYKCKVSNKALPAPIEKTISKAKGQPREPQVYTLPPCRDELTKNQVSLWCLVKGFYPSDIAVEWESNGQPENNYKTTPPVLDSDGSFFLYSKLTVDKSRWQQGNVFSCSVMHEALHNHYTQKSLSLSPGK
notes: also called TROP2 - PS (control)
[4]
  binding result: binds
